Each block holds one binder with its values, some of them ahead of it.
What was measured:
[1] = target: T1, mouse recombinant G-CSF (granulocyte colony-stimulating factor) (mouse, UniProt P09920, radioiodinated (125I, IODO-GEN method) where used as the labelled ligand; unlabelled where used as competitor); assay: saturation binding of 125I-G-CSF to COS cells transfected with pJ17, Scatchard plot
Procedure: The binding of ^125I-G-CSF to COS or NFS-60 cells was examined. COS cells grown on 15 cm plates were transfected with 20 µg of the pI62 or pJ17 plasmid. Cells were split into 6-well microtiter plates at 12 hr after the glycerol shock, and grown for 60 hr in DMEM containing 10% FCS. Cells were washed with binding medium, and incubated at 4° C. for 4 hr with ^125I-G-CSF (10 pM to 1.2 nM range). To determine the non-specific binding of ^125I-G-CSF to cells, a large excess of unlabeled G-CSF (800 nM) was incubated in the assay mixture, and the radioactivity bound to the cells was subtracted from the total binding to yield the specific binding.
For binding of G-CSF to NFS-60 cells, 5.2 ×10^6 cells were incubated at 4° C. for 4 hr with various concentrations of ^125I-G-CSF in 0.3 ml of RPMI-1640 medium containing 10% FCS and 20 mM HEPES (pH 7.3). As mentioned above, 1 ×10^6 COS cells transfected with the plasmid pJ17 were incubated with various amounts of ^125I-G-CSF with or without an excess of unlabeled G-CSF. In the FIG. 3A, the specific binding (●) is shown as the difference between total (○) and non-specific binding (Δ). FIG. 3B is the scatchard plot of G-CSF binding data in COS cells, and FIG. 3C is the saturated binding of ^125I-G-CSF to NFS-60 cells, showing total (○), non-specific (Δ) and specific (●) binding to cells. […]

mouse recombinant GM-CSF = mouse recombinant GM-CSF (mouse, UniProt P01587); assay: competition for binding of 125I-mouse G-CSF to COS cells transfected with pJ17
[2] = target: mouse recombinant LIF (leukemia inhibitory factor) (mouse, UniProt P09056); assay: as above
human recombinant M-CSF = target: T2, human recombinant M-CSF (human, UniProt P09603); assay: as above
T2 sequence: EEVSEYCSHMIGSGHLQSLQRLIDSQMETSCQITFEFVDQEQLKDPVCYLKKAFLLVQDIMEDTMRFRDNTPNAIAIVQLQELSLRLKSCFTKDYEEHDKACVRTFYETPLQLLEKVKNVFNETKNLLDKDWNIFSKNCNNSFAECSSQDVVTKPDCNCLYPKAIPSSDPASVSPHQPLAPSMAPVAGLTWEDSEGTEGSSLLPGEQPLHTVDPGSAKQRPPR

mouse recombinant IL-6 = target: T3, mouse recombinant IL-6 (mouse, UniProt P08505); assay: as above
T3 sequence: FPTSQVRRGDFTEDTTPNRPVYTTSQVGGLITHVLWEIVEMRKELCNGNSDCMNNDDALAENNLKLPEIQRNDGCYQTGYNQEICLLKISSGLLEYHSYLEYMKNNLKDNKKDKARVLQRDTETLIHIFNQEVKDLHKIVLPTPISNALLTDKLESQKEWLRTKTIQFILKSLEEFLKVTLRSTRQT

mouse recombinant IL-3 = mouse recombinant IL-3 (mouse, UniProt P01586); assay: as above
rat prolactin = target: T4, rat prolactin (rat, UniProt P01237); assay: as above
T4 sequence: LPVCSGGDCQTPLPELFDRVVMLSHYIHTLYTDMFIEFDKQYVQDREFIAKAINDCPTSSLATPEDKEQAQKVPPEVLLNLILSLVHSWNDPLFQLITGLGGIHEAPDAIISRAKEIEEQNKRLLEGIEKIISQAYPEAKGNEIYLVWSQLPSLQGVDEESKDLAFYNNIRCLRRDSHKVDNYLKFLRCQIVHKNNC

[3] = target: T1, mouse recombinant G-CSF (granulocyte …); assay: saturation binding of 125I-G-CSF to NFS-60 cells, Scatchard plot
Procedure: For binding of G-CSF to NFS-60 cells, 5.2 ×10^6 cells were incubated at 4° C. for 4 hr with various concentrations of ^125I-G-CSF in 0.3 ml of RPMI-1640 medium containing 10% FCS and 20 mM HEPES (pH 7.3). As mentioned above, 1 ×10^6 COS cells transfected with the plasmid pJ17 were incubated with various amounts of ^125I-G-CSF with or without an excess of unlabeled G-CSF. In the FIG. 3A, the specific binding (●) is shown as the difference between total (○) and non-specific binding (Δ). FIG. 3B is the scatchard plot of G-CSF binding data in COS cells, and FIG. 3C is the saturated binding of ^125I-G-CSF to NFS-60 cells, showing total (○), non-specific (Δ) and specific (●) binding to cells. The specific binding is the difference between the total and non-specific binding. FIG. 3D is the scatchard plot of G-CSF binding data on NFS-60 cells. […] If the transfection efficiency of COS cells was assumed to be 10 to 20% (Sympayrac and Danna, Proc. Natl. Acad. Sci. USA, 78, 7575–7578 (1981)), the positively transfected COS cells probably expressed the recombinant G-CSF receptor at 1.5-3.0 ×10^5 molecules per cell.

[4] = target: T1, mouse recombinant G-CSF (granulocyte …); assay: saturation binding of murine 125I-G-CSF to COS cells transfected with pHQ3, Scatchard plot

Kd [1]: 0.29 nM
binding result (mouse recombinant GM-CSF): no binding
binding result [2]: no binding
binding result (human recombinant M-CSF): no binding
binding result (mouse recombinant IL-6): no binding
binding result (mouse recombinant IL-3): no binding
binding result (rat prolactin): no binding
B1: recombinant murine G-CSF receptor expressed on COS cells (plasmids pI62, pJ17) (receptor)
chain: CGHIEISPPVVRLGDPVLASCTISPNCSKLDQQAKILWRLQDEPIQPGDRQHHLPDGTQESLITLPHLNYTQAFLFCLVPWEDSVQLLDQAELHAGYPPASPSNLSCLMHLTTNSLVCQWEPGPETHLPTSFILKSFRSRADCQYQGDTIPDCVAKKRQNNCSIPRKNLLLYQYMAIWVQAENMLGSSESPKLCLDPMDVVKLEPPMLQALDIGPDVVSHQPGCLWLSWKPWKPSEYMEQECELRYQPQLKGANWTLVFHLPSSKDQFELCGLHQAPVYTLQMRCIRSSLPGFWSPWSPGLQLRPTMKAPTIRLDTWCQKKQLDPGTVSVQLFWKPTPLQEDSGQIQGYLLSWNSPDHQGQDIHLCNTTQLSCIFLLPSEAQNVTLVAYNKAGTSSPTTVVFLENEGPAVTGLHAMAQDLNTIWVDWEAPSLLPQGYLIEWEMSSPSYNNSYKSWMIEPNGNITGILLKDNINPFQLYRITVAPLYPGIVGPPVNVYTFAGERAPPHAPALHLKHVGTTWAQLEWVPEAPRLGMIPLTHYTIFWADAGDHSFSVTLNISLHDFVLKHLEPASLYHVYLMATSRAGSTNSTGLTLRTLDPSDLNIFLGILCLVLLSTTCVVTWLCCKRRGKTSFWSDVPDPAHSSLSSWLPTIMTEETFQLPSFWDSSVPSITKITELEEDKKPTHWDSESSGNGSLPALVQAYVLQGDPREISNQSQPPSRTGDQVLYGQVLESPTSPGVMQYIRSDSTQPLLGGPTPSPKSYENIWFHSRPQETFVPQPPNQEDDCVFGPPFDFPLFQGLQVHGVEEQGGF

Kd [3]: 0.18 nM
B2: native murine G-CSF receptor on NFS-60 cells (receptor)
chain: CGHIEISPPVVRLGDPVLASCTISPNCSKLDQQAKILWRLQDEPIQPGDRQHHLPDGTQESLITLPHLNYTQAFLFCLVPWEDSVQLLDQAELHAGYPPASPSNLSCLMHLTTNSLVCQWEPGPETHLPTSFILKSFRSRADCQYQGDTIPDCVAKKRQNNCSIPRKNLLLYQYMAIWVQAENMLGSSESPKLCLDPMDVVKLEPPMLQALDIGPDVVSHQPGCLWLSWKPWKPSEYMEQECELRYQPQLKGANWTLVFHLPSSKDQFELCGLHQAPVYTLQMRCIRSSLPGFWSPWSPGLQLRPTMKAPTIRLDTWCQKKQLDPGTVSVQLFWKPTPLQEDSGQIQGYLLSWNSPDHQGQDIHLCNTTQLSCIFLLPSEAQNVTLVAYNKAGTSSPTTVVFLENEGPAVTGLHAMAQDLNTIWVDWEAPSLLPQGYLIEWEMSSPSYNNSYKSWMIEPNGNITGILLKDNINPFQLYRITVAPLYPGIVGPPVNVYTFAGERAPPHAPALHLKHVGTTWAQLEWVPEAPRLGMIPLTHYTIFWADAGDHSFSVTLNISLHDFVLKHLEPASLYHVYLMATSRAGSTNSTGLTLRTLDPSDLNIFLGILCLVLLSTTCVVTWLCCKRRGKTSFWSDVPDPAHSSLSSWLPTIMTEETFQLPSFWDSSVPSITKITELEEDKKPTHWDSESSGNGSLPALVQAYVLQGDPREISNQSQPPSRTGDQVLYGQVLESPTSPGVMQYIRSDSTQPLLGGPTPSPKSYENIWFHSRPQETFVPQPPNQEDDCVFGPPFDFPLFQGLQVHGVEEQGGF

Kd [4]: 0.55 nM
B3: human G-CSF receptor, class 1 (plasmid pHQ3), expressed on COS cells (receptor)
chain: EECGHISVSAPIVHLGDPITASCIIKQNCSHLDPEPQILWRLGAELQPGGRQQRLSDGTQESIITLPHLNHTQAFLSCCLNWGNSLQILDQVELRAGYPPAIPHNLSCLMNLTTSSLICQWEPGPETHLPTSFTLKSFKSRGNCQTQGDSILDCVPKDGQSHCCIPRKHLLLYQNMGIWVQAENALGTSMSPQLCLDPMDVVKLEPPMLRTMDPSPEAAPPQAGCLQLCWEPWQPGLHINQKCELRHKPQRGEASWALVGPLPLEALQYELCGLLPATAYTLQIRCIRWPLPGHWSDWSPSLELRTTERAPTVRLDTWWRQRQLDPRTVQLFWKPVPLEEDSGRIQGYVVSWRPSGQAGAILPLCNTTELSCTFHLPSEAQEVALVAYNSAGTSRPTPVVFSESRGPALTRLHAMARDPHSLWVGWEPPNPWPQGYVIEWGLGPPSASNSNKTWRMEQNGRATGFLLKENIRPFQLYEIIVTPLYQDTMGPSQHVYAYSQEMAPSHAPELHLKHIGKTWAQLEWVPEPPELGKSPLTHYTIFWTNAQNQSFSAILNASSRGFVLHGLEPASLYHIHLMAASQAGATNSTVLTLMTLTPEGSELHIILGLFGLLLLLTCLCGTAWLCCSPNRKNPLWPSVPDPAHSSLGSWVPTIMEEDAFQLPGLGTPPITKLTVLEEDEKKPVPWESHNSSETCGLPTLVQTYVLQGDPRAVSTQPQSQSGTSDQVLYGQLLGSPTSPGPGHYLRCDSTQPLLAGLTPSPKSYENLWFQASPLGTLVTPAPSQEDDCVFGPLLNFPLLQGIRVHGMEALGSF

— US5574136, “DNA encoding granulocyte colony-stimulating factor receptor and protein thereof” (Osaka Bioscience Institute, dated 1996)
